Laboratory results as given in PMC6629641, “DNA translocation mechanism of the MCM complex and implications for replication initiation” (Nature Communications, 2019).

B1: SsoMCM-GGSGGS-ΔC (enzyme, Sulfolobus solfataricus, UniProt Q9UXG1 1-612, looked up)
chain: MEIPSKQIDYRDVFIEFLTTFKGNNNQNKYIERINELVAYRKKSLIIEFSDVLSFNENLAYEIINNTKIILPILEGALYDHILQLDPTYQRDIEKVHVRIVGIPRVIELRKIRSTDIGKLITIDGILVKVTPVKERIYKATYKHIHPDCMQEFEWPEDEEMPEVLEMPTICPKCGKPGQFRLIPEKTKLIDWQKAVIQERPEEVPSGQLPRQLEIILEDDLVDSARPGDRVKVTGILDIKQDSPVKRGSRAVFDIYMKVSSIEVSGGSGGSSEEDEKKIKDLAKDPWIRDRIISSIAPSIYGHWELKEALALALFGGVPKVLEDTRIRGDIHILIIGDPGTAKSQMLQFISRVAPRAVYTTGKGSTAAGLTAAVVREKGTGEYYLEAGALVLADGGIAVIDEIDKMRDEDRVAIHEAMEQQTVSIAKAGIVAKLNARAAVIAAGNPKFGRYISERPVSDNINLPPTILSRFDLIFILKDQPGEQDRELANYILDVHSGKSTKNIIDIDTLRKYIAYARKYVTPKITSEAKNLITDFFVEMRKKSSETPDSPILITPRQLEALIRISEAYAKMALKAEVTREDAERAINIMRLFLESVGVDMESGKIDID
notes: minichromosome maintenance (MCM) protein of Sulfolobus solfataricus, cut after amino acid 612 (the C-terminal HTH domain deleted); Homohexamer; crystallised with a 12-mer ssDNA, Mg2+, ADP and ADP-BeF3; also called nearly full-length SsoMCM; MCM hexamer; source: E. coli BL21(DE3)-RIPL, purified (Ni-NTA, size-exclusion, Ulp1 cleavage, anion exchange, gel filtration); not shown: His6, N-terminal, …
B2: wild-type full-length SsoMCM (enzyme, Sulfolobus solfataricus, UniProt Q9UXG1 1-686, looked up)
chain: MEIPSKQIDYRDVFIEFLTTFKGNNNQNKYIERINELVAYRKKSLIIEFSDVLSFNENLAYEIINNTKIILPILEGALYDHILQLDPTYQRDIEKVHVRIVGIPRVIELRKIRSTDIGKLITIDGILVKVTPVKERIYKATYKHIHPDCMQEFEWPEDEEMPEVLEMPTICPKCGKPGQFRLIPEKTKLIDWQKAVIQERPEEVPSGQLPRQLEIILEDDLVDSARPGDRVKVTGILDIKQDSPVKRGSRAVFDIYMKVSSIEVSQKVLDEVIISEEDEKKIKDLAKDPWIRDRIISSIAPSIYGHWELKEALALALFGGVPKVLEDTRIRGDIHILIIGDPGTAKSQMLQFISRVAPRAVYTTGKGSTAAGLTAAVVREKGTGEYYLEAGALVLADGGIAVIDEIDKMRDEDRVAIHEAMEQQTVSIAKAGIVAKLNARAAVIAAGNPKFGRYISERPVSDNINLPPTILSRFDLIFILKDQPGEQDRELANYILDVHSGKSTKNIIDIDTLRKYIAYARKYVTPKITSEAKNLITDFFVEMRKKSSETPDSPILITPRQLEALIRISEAYAKMALKAEVTREDAERAINIMRLFLESVGVDMESGKIDIDTIMTGKPKSAREKMMKIIEIIDSLAVSSECAKVKDILKEAQQVGIEKSNIEKLLTDMRKSGIIYEAKPECYKKV
notes: minichromosome maintenance (MCM) protein of Sulfolobus solfataricus, full length; also called pEE045.1; source: E. coli BL21(DE3)-RIPL, purified (Ni-NTA, size-exclusion, Ulp1 cleavage, anion exchange, gel filtration); not shown: His6, N-terminal, cleaved; SUMO, N-terminal, cleaved

Legend:
[1] = biological target: the molecule itself; test: crystal structure; SsoMCM-GGSGGS-ΔC with a 12-mer oligonucleotide, magnesium, ADP and beryllium fluoride; hanging drop, 18 °C, 50 mM MES pH 6.0, 100 mM NaCl, 20 mM MgCl2, 9% PEG 8000; 3.15 Å
[2] = biological target: the molecule itself; test: SEC; last gel-filtration step after removal of the SUMO tag and anion exchange; oligomer judged from the elution volume

Protein | stoichiometry N [1] | stoichiometry N [2]
B1 | 6 | –
B2 | – | 6
